Residue numbers refer to the chain shown, from its start.
B1: MHPD1-A-H1 Fc (Fc fusion, not shown: a dimerising Fc or GST; small tags and cut ends)
VHH: QVQLVESGGGSVQPGGSLTLSCAASGSDPSIYAMGWFRQAPGKEHEFVAGIGWSAATTYYADSVKGRFGISRDNTKNTVALLMNSLKPEDTAIYYCAADLDHSGFDYWGQGTLVTVSS
notes: First round of humanization of MHPD1-A; also called humanized nanobody-Fc fusion protein
B2: MHPD1-A-H2 Fc (Fc fusion, not shown: a dimerising Fc or GST; small tags and cut ends)
VHH: B1 VHH with P14V, T19R, K87R, P88A, L113Q
notes: as for B1
B3: MHPD1-A-H3 Fc (Fc fusion, not shown: a dimerising Fc or GST; small tags and cut ends)
VHH: B1 VHH with P14V, V79L, L113Q
notes: as for B1
B4: MHPD1-A-H5 Fc (Fc fusion, not shown: a dimerising Fc or GST; small tags and cut ends)
VHH: B1 VHH with P14V, A80Y, L82Q, L113Q
notes: as for B1
B5: MHPD1-A-H6 Fc (Fc fusion, not shown: a dimerising Fc or GST; small tags and cut ends)
VHH: B1 VHH with P14V, G35M, L113Q
notes: as for B1
B6: MHPD1-A-H7 Fc (Fc fusion, not shown: a dimerising Fc or GST; small tags and cut ends)
VHH: B1 VHH with P14V, G35M, T75S, L113Q
notes: as for B1
B7: MHPD1-A-H8 Fc (Fc fusion, not shown: a dimerising Fc or GST; small tags and cut ends)
VHH: B1 VHH with P14V, E44G, H45L, L113Q
notes: as for B1
B8: MHPD1-A-H9 Fc (Fc fusion, not shown: a dimerising Fc or GST; small tags and cut ends)
VHH: B1 VHH with T19R, K87R, P88A
notes: also called humanized nanobody-Fc fusion protein
B9: MHPD1-A-H10 Fc (Fc fusion, not shown: a dimerising Fc or GST; small tags and cut ends)
VHH: B1 VHH with T19R, G69T, V79L
notes: as for B1
B10: MHPD1-A-7 H Fc (Fc fusion)
chain: QVQLVESGGGLVQPGGSLRLSCATSGSRRSIYAMGWFRQAPGKGLEFVAGIGWAYATTYYADSVKGRFTISRDNTKNTLYLQMNSLRAEDTAVYYCAADLDHSGFDYWGQGTLVTVSS
notes: parent of the second round; also called parent MHPD1-A-7 H Fc; not shown: Fc
B11: MHPD1-A-20 H Fc (Fc fusion, not shown: a dimerising Fc or GST; small tags and cut ends)
VHH: B10 chain with R29K
B12: MHPD1-A-32 H Fc (Fc fusion)
chain: B10 chain with G26K, S27N
notes: not shown: Fc
B13: MHPD1-A-37 H Fc (Fc fusion, not shown: a dimerising Fc or GST; small tags and cut ends)
VHH: B10 chain with S27A, H102R, S103T
B14: MHPD1-A-45 H Fc (Fc fusion)
chain: B10 chain with G26H, S27L
notes: not shown: Fc
B15: MHPD1-A-49 H Fc (Fc fusion, not shown: a dimerising Fc or GST; small tags and cut ends)
VHH: B10 chain with H102R, S103V
B16: MHPD1-A-15 H Fc (Fc fusion)
chain: B10 chain with S27L, A56S
notes: not shown: Fc
B17: MHPD1-A-21 H Fc (Fc fusion, not shown: a dimerising Fc or GST; small tags and cut ends)
VHH: B10 chain with T58S
B18: MHPD1-A-23 H Fc (Fc fusion)
VHH: B10 chain with S27T
notes: not shown: Fc region
B19: MHPD1-A-30 H Fc (Fc fusion)
chain: B10 chain with S27V, T58Q, L100I
notes: not shown: Fc
B20: MHPD1-A-39 H Fc (Fc fusion)
chain: B10 chain with T58E
notes: not shown: Fc
B21: MHPD1-A-H12 Fc (Fc fusion, not shown: a dimerising Fc or GST; small tags and cut ends)
VHH: B1 VHH with T19R, G69T, V79L, K87R, P88A
notes: Second round of humanization of MHPD1-A; also called humanized nanobody-Fc fusion protein
B22: MHPD1-A-H14 Fc (Fc fusion, not shown: a dimerising Fc or GST; small tags and cut ends)
VHH: B1 VHH with T19R, A80Y, L82Q, K87R, P88A
notes: as for B21
B23: MHPD1-A-H15 Fc (Fc fusion, not shown: a dimerising Fc or GST; small tags and cut ends)
VHH: B1 VHH with T19R, G69T, V79L, A80Y, L82Q, K87R, P88A
notes: as for B21
B24: MHPD1-A-H16 Fc (Fc fusion, not shown: a dimerising Fc or GST; small tags and cut ends)
VHH: B1 VHH with S11L, T19R, K87R, P88A, I93V
notes: as for B21
B25: MHPD1-A-H17 Fc (Fc fusion, not shown: a dimerising Fc or GST; small tags and cut ends)
VHH: B10 chain with L11S, T24A, R28D, R29P, A54S, Y55A, V93I
notes: as for B21
B26: MHPD1-A-H18 Fc (Fc fusion, not shown: a dimerising Fc or GST; small tags and cut ends)
VHH: B10 chain with T24A, R28D, R29P, A54S, Y55A, V93I
notes: as for B21
B27: MHPD1-A-H19 Fc (Fc fusion, not shown: a dimerising Fc or GST; small tags and cut ends)
VHH: B10 chain with T24A, R28D, R29P, A54S, Y55A
notes: Second round of humanization; also called humanized nanobody-Fc fusion protein; parent MHPD1-A-H19 Fc
B28: MHPD1-A-3 H Fc (Fc fusion, not shown: a dimerising Fc or GST; small tags and cut ends)
VHH: B10 chain with T24A, R28G, A54S
B29: MHPD1-A-4 H Fc (Fc fusion, not shown: a dimerising Fc or GST)
chain: B10 chain with T24A, R28V, R29G, Y55F
B30: MHPD1-A-14 H Fc (Fc fusion, not shown: a dimerising Fc or GST; small tags and cut ends)
VHH: B10 chain with T24A, G26S, S27H, R29P, A54R
B31: Pembrolizumab (antibody, human IgG4 S228P, kappa, V domains shown)
VH: QVQLVQSGVEVKKPGASVKVSCKASGYTFTNYYMYWVRQAPGQGLEWMGGINPSNGGTNFNEKFKNRVTLTTDSSTTTAYMELKSLQFDDTAVYYCARRDYRFDMGFDYWGQGTTVTVSS
VL: EIVLTQSPATLSLSPGERATLSCRASKGVSTSGYSYLHWYQQKPGQAPRLLIYLASYLESGVPARFSGSGSGTDFTLTISSLEPEDFAVYYCQHSRDLPLTFGGGTKVEIKR

Molecular target: T1, recombinant human PD-1-his protein (human, UniProt Q15116 25-167)
T1 construct: also called hPD-1-his; not shown: his tag
T1 sequence (Q15116 25-167 limits assumed): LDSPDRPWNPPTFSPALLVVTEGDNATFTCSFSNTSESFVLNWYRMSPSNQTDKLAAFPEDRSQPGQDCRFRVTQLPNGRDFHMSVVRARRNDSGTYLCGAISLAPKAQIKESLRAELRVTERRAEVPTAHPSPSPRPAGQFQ
Assay: ELISA (first round of humanization); PD-1-his coated 2 µg/mL, anti-human IgG Fc-HRP
Method: (§1) 96-well ELISA plates were coated with 2 μg/mL of recombinant human PD-1-his antigen protein at 30 μL/well at 4° C. overnight. The plates were washed three times with PBST. 5% PBS-Milk was added and incubated at room temperature for 2 h. The plates were washed three times with PBST. All the nanobody-Fc fusion proteins were subject to 3-fold gradient dilutions with an initial concentration of 10 μg/mL, added into each well at 30 μL/well, and incubated at room temperature for 1 hr. The plates were washed three times with PBST. The secondary antibody Goat-Anti-Human-IgG-Fc-HRP (purchased from Sigma) was diluted at 1:8000, added into each well at 30 μL/well, and incubated at room temperature for 50 min. The plates were washed three times with PBST. TMB (purchased from SurModics) was added into each well at 30 μL/well and developed at room temperature in dark for 1 min to 5 min. 2 M hydrochloric acid was added at 30 μL/well to stop the reaction. The OD450 absorbance value was read by a microplate reader.

Binder | EC50 [mg/L]
B1 | 0.24
B2 | 0.22
B3 | 0.16
B4 | 0.35
B5 | 2.91
B6 | 2.54
B7 | 0.2
B8 | 0.15
B9 | 0.32

Molecular target: T2, recombinant human PD-1-Fc-Biotin (human, UniProt Q15116 25-167, biotin (site not stated))
T2 construct: also called antigen protein human PD-1; not shown: Fc
T2 sequence (Q15116 25-167 limits assumed): as above
Assay: competitive ELISA; PD-L1-mFc coated, 0.5 µg/mL PD-1-Fc-Biotin, streptavidin-HRP
Method: The plates were washed three times with PBST. 5% PBS-Milk was added and incubated at room temperature for 1 hr. All the nanobody-Fc fusion proteins were subject to 3-fold gradient dilutions with an initial concentration of 10 μg/mL, added into each well at 30 μL/well, and incubated at room temperature for 1 hr. […] The plates were washed with PBST between incubations.

Binder | IC50 [nM]
B10 | 0.778
B11 | 1.21
B12 | 1.72
B13 | 1.54
B14 | 0.944
B15 | 1.26
B16 | 0.517
B17 | 1.61
B18 | 1.2
B19 | 1.08
B20 | 0.85

Molecular target: T1, recombinant human PD-1-his protein
Assay: ELISA (second round of humanization); PD-1-his coated 2 µg/mL, anti-human IgG Fc-HRP
Method: as §1

Binder | EC50 [nM]
B21 | 4.32
B22 | 1.88
B23 | 2.15
B24 | 2.29
B25 | 0.64
B26 | 1.29
B27 | 0.55

Molecular target: T1, recombinant human PD-1-his protein
Assay: ELISA; PD-1-his coated 2 µg/mL, anti-human IgG Fc-HRP
Method: (§2) The plates were washed three times with PBST. 5% PBS-Milk was added and incubated at room temperature for 2 h. The plates were washed three times with PBST. All the nanobody-Fc fusion proteins were subject to 3-fold gradient dilutions with an initial concentration of 10 μg/mL, added into each well at 30 μL/well, and incubated at room temperature for 1 hr. The plates were washed three times with PBST. The secondary antibody Goat-Anti-Human-IgG-Fc-HRP was diluted at 1:8000, added into each well at 30 μL/well, and incubated at room temperature for 50 min. The plates were washed nine times with PBST. TMB was added into each well at 30 μL/well and developed at room temperature in dark for 1 min to 5 min. 2 M hydrochloric acid was added at 30 μL/well to stop the reaction. The OD450 absorbance value was read by a microplate reader. Graphpad Prism software was used to fit the curve and calculate the EC₅₀ value (see Table 7).

Binder | EC50 [nM]
B10 | 0.135
B28 | 0.251
B29 | 0.169
B27 | 0.369
B30 | 1.22

Molecular target: T1, recombinant human PD-1-his protein
Assay: as above
Remark: another data set of the same source
Method: as §2, with “PBS-Milk” for “PBS-Milk was added”, “3-folded” for “3-fold”, “dilution” for “dilutions”, “calculate” for “calculate the”, “values.” for “value (see Table 7).”

Binder | EC50 [nM]
B10 | 0.149
B11 | 0.175
B12 | 0.156
B13 | 0.141
B14 | 0.146
B15 | 0.171
B16 | 0.134
B17 | 0.179
B18 | 0.152
B19 | 0.166
B20 | 0.158

Molecular target: PD1 on Jurkat-NFAT-PD1 transgene cells
Assay: cell-based or functional assay

Binder | luciferase reporter gene fluorescence signal, Jurkat-NFAT-PD1 effector cells with Hep3B-OS8-PDL1 target cells (EC50) [nM]
B10 | 0.07
B28 | 0.078
B29 | 0.09
B31 | 0.091

Molecular target: T2, recombinant human PD-1-Fc-Biotin
Assay: competitive ELISA; PD-L1-mFc coated, 0.5 µg/mL PD-1-Fc-Biotin, streptavidin-HRP
Remark: another data set of the same source
Method: The plates were washed three times with PBST. 5% PBS-Milk was added and incubated at room temperature for 1 hr. All the nanobody-Fc fusion proteins were subject to 3-fold gradient dilutions with an initial concentration of 10 μg/mL, added into each well at 30 μL/well, and incubated at room temperature for 1 hr. […] The well plates were washed with PBST between incubations.

Binder | IC50 [nM]
B10 | 0.316
B28 | 0.275
B29 | 0.281
B27 | 1.31
B30 | 0.852
